How the values were obtained:
[1] = molecular target: Ech2 complex (energy-converting hydrogenase 2) of T. kivui, His-tagged on Ech2C (Thermoanaerobacter kivui); assay: native gel or EMSA; purified Ech2 on nondenaturing PAGE with size standards, Coomassie stain and in-gel hydrogenase activity assay; bands of about 230, 450 and 520 kDa, only the 450 and 520 kDa bands active
[2] = molecular target: T1, Ech2 complex (energy-converting hydrogenase Ech2) (Thermoanaerobacter kivui, UniProt A0A097ATF1+A0A097ATH3+A0A097ATI1); assay: Fd2-:H+ oxidoreductase activity, H2 by gas chromatography; type: biochemical; conditions: read-out: 50% inhibition
T1 construct: gene ech2A1; eight-subunit complex from T. kivui membranes (DDM), plasmid-encoded Ech2C with C-terminal 10x His tag, other subunits native; predicted monomer 248 kDa, active bands ~450 and ~520 kDa (dimer); with Energy-converting hydrogenase Ech2 subunit Ech2C; Energy-converting hydrogenase Ech2 subunit Ech2D; Energy-converting hydrogenase Ech2 subunit Ech2E; Energy-converting hydrogenase Ech2 subunit Ech2F; HycB2 (4Fe-4S ferredoxin-type subunit)

[3] = molecular target: Ech2 complex (energy-converting hydrogenase 2) of T. kivui, His-tagged on Ech2C (Thermoanaerobacter kivui)

Ech2 complex (energy-converting hydrogenase 2) of T. kivui, His-tagged on Ech2C, A0A097ATI1 1-625; A0A097ATF1 1-380; A0A097ATH3 1-311; A0A097ATJ2 1-141; A0A097ATJ6 1-120; A0A097ATH9 1-364; A0A097ATH4 1-156; A0A097ATH8 1-132
stoichiometry N [1]: 2

C(=NC1CCCCC1)=NC1CCCCC1 [DCCD]
IC50 [2]: 9.9 ± 0.4 µM

B1: ferredoxin (Fd) isolated from Clostridium pasteurianum (natural protein)
chain: MAYKIADSCVSCGACASECPVNAISQGDSIFVIDADTCIDCGNCANVCPVGAPVQE
Km for Fd of the H2:Fd oxidoreductase reaction of purified Ech2 (0 to 90 μM Fd) [3]: 17.8 µM
